According to patent US6395526B1, “DNA polymerase” (Takara Shuzo Co., Ltd., priority 1995, dated 2002):
“Also recorded” adds a separate entry of the source.

Legend:
[1] = test system: substrate DNA (template-primer); assay: DNA polymerase activity on different forms of substrate DNA (template-primer); assay type: biochemical
Procedure: The DNA polymerase activity was assayed using calf thymus DNA (manufactured by Worthington) activated by DNase I treatment (activated DNA) as a substrate. DNA activation and assay of DNA polymerase activity were carried out by the method described in DNA Polymerase from Escherichia coli, 263-276 (authored by C. C. Richardson), published by Harper & Row, edited by D. R. Davis.
An assay of enzyme activity was carried out by the following method. Specifically, 50 μl of a reaction solution [20 mM Tris-HCl (pH 7.7), 15 mM MgCl2, 2 mM 2-mercaptoethanol, 0.2 mg/ml activated DNA, 40 μM each of dATP, dCTP, dGTP and dTTP, 60 nM [^3H]-dTTP (manufactured by Amersham)], containing a sample for assaying its activity, was prepared and reacted at 75° C. for 15 minutes. A 40 μl portion of this reaction mixture was then spotted onto a DE paper (manufactured by Whatman) and washed with 5% Na2HPO4 five times. The remaining radioactivity on the DE paper was assayed using a liquid scintillation counter. The amount of enzyme which incorporated 10 nmol of [^3H]-dTMP per 30 minutes into the substrate DNA, assayed by the above-described enzyme activity assay method, was defined as one unit of the enzyme.
Next, in order to compare the selectivity of the DNA polymerase of the present invention for different forms of substrate DNA, the following template-primer was examined. Aside from the activated DNA used for conventional assay of the activity, those prepared as substrates include a thermal-denatured DNA prepared by treating the activated DNA at 85° C. for 5 minutes; M13-HT Primer prepared by annealing a 45-base synthetic deoxyribooligonucleotide of the sequence as shown by SEQ ID NO:6 in Sequence Listing as a primer to the M13 phage single stranded DNA (M13mp18 ssDNA, manufactured by Takara Shuzo Co., Ltd.); M13-RNA Primer prepared by annealing a 17-base synthetic ribooligonucleotide of the sequence as shown by SEQ ID NO:7 in Sequence Listing as a primer to the same M13 phage single stranded DNA; Poly dA-Oligo dT prepared by mixing polydeoxyadenosine (Poly dA, manufactured by Pharmacia) and oligodeoxythymidine (Oligo dT, manufactured by Pharmacia) in a 20:1 molar ratio; and Poly A-Oligo dT prepared by mixing polyadenosine (Poly A, manufactured by Pharmacia) and oligodeoxythymidine in a 20:1 molar ratio.
The DNA polymerase activity was assayed using these substrates in place of the activated DNA. The relative activity of each substrate when the activity obtained in the case of using an activated DNA as a substrate is defined as 100 is shown in Table 1. For comparison, the Pfu DNA polymerase and the Taq DNA polymerase derived from Thermus aquaticus (TaKaRa Taq, manufactured by Takara Shuzo Co., Ltd.) were also examined in the same manner.

[2] = test system: activated DNA; assay: Optimum KCl and MgCl2 concentrations for DNA polymerase activity; assay type: biochemical, calf
Procedure: For a DNA polymerase preparation forming a complex of the translation products of ORF3 and ORF4 obtained in Example 3, namely the first DNA polymerase-constituting protein and the second DNA polymerase-constituting protein in a ratio at 1:1, optimum MgCl2 and KCl concentrations were firstly assayed. The DNA polymerase activity was assayed in a reaction system containing 20 mM Tris-HCl, pH 7.7, 2 mM 2-mercaptoethanol, 0.2 mg/ml activated DNA, and 40 μM each of dATP, dGTP, dCTP and dTTP in the presence of 2 mM MgCl2, while the KCl concentration was step by step increased from 0 to 200 mM KCl for each 20 mM increment. […] Next, the DNA polymerase activity was assayed in the same reaction system but in the presence of 60 mM KCl in this time, while the MgCl2 concentration was step by step increased from 0.5 to 25 mM MgCl2 for each 2.5 mM increment, to compare at each concentration.

[3] = test system: activated DNA; assay: Optimum pH and temperature of DNA polymerase activity; assay type: biochemical, calf; conditions: Tris-HCl in place of potassium phosphate; highest pH level used in the assay
Procedure: However, because the double stranded structure of the activated DNA used as a substrate for activity assay is destructed at higher temperatures, an accurate optimum temperature for the activity of the above enzyme has not been assayed. […] This level of the heat stability allows the use of the above enzyme for PCR method.
The optimum pH was then assayed. […], and preparing a reaction mixture comprising 20 mM potassium phosphate, 15 mM MgCl2, 2 mM 2-mercaptoethanol, 0.2 mg/ml activated DNA, 40 μM each of dATP, dCTP, dGTP and dTTP, and 60 nM [^3H]-dTTP. The results are shown in FIG. 3, wherein the abscissa indicates the pH, and the ordinate indicates the radioactivity incorporated in high-molecular DNA.

[4] = test system: 32P-labeled DNA fragment from pUC119 vector; assay: Associated exonuclease activity; assay type: biochemical; conditions: 75° C.
Procedure: The exonuclease activity of the DNA polymerase of the present invention was assessed as follows: As a substrate for 5′→3′ exonuclease activity detection, a DNA fragment labeled with ^32P at the 5′-end was prepared by a process comprising digesting a pUC119 vector (manufactured by Takara Shuzo Co., Ltd.) with SspI (manufactured by Takara Shuzo Co., Ltd.), separating the resulting 386 bp DNA fragment by agarose gel electrophoresis, purifying the fragment, and labeling with [γ-^32P]-ATP and polynucleotide kinase. Also, as a substrate for 3′→5′ exonuclease activity detection, a DNA fragment labeled with ^32P at 3′-end was prepared by a process comprising digesting a pUC119 vector with Sau3AI, separating the resulting 341 bp DNA fragment by agarose gel electrophoresis, purifying the fragment, and carrying out a fill-in reaction using […] (manufactured by Amersham) and the Klenow fragment (manufactured by Takara Shuzo Co., Ltd.). […] The radioactivity existing in the supernatant was assayed using a liquid scintillation counter, and the amount of degradation by the exonuclease activity was calculated.
In the figure, the abscissa indicates the reaction time, and the ordinate indicates the ratio of radioactivity released into the supernatant relative to the radioactivity contained in the entire reaction mixture. […]

[5] = test system: λ-DNA; conditions: reported, enzyme used alone; cited from earlier work
[6] = substrate M13-HT primer, activated DNA = 100
[7] = substrate M13-RNA primer, activated DNA = 100
[8] = substrate activated DNA (defined as 100)
[9] = substrate poly A-Oligo dT, activated DNA = 100
[10] = substrate poly dA-Oligo dT, activated DNA = 100
[11] = substrate thermal-denatured DNA, activated DNA = 100

| Substance | Relative Activity [1, 6] | Relative Activity [1, 7] | Relative Activity [1, 8] | Relative Activity [1, 9] | Relative Activity [1, 10] | Relative Activity [1, 11] | MgCl2 concentration of maximum activity ([2]; in the absence of KCl) [mM] | KCl concentration of maximum activity ([2]; in the presence of 2 mM MgCl2, 20 mM Tris-HCl pH 7.7) [mM] | MgCl2 concentration of maximum activity ([2]; in the presence of 60 mM KCl) [mM] | pH of maximum activity [3] | 3′→5′ exonuclease activity ([4]; 3′-end labeled 341 bp fragment) | 5′→3′ exonuclease activity ([4]; 5′-end labeled 386 bp fragment) | strand length of DNA amplifiable by PCR [5] |
| --- | --- | --- | --- | --- | --- | --- | --- | --- | --- | --- | --- | --- | --- |
| DNA Polymerase of the Present Invention: complex of first (ORF3, SEQ ID NO:2) and second (ORF4, SEQ ID NO:4) DNA polymerase-constituting proteins from Pyrococcus furiosus | 170 | 52 | 100 | 0.085 | 94 | 340 | 17.5 | 60 | 10 | 8.02 | potent; also recorded: of the same level as that of the Pfu DNA polymerase | no 5′→3′exonuclease activity was observed |  |
| Taq DNA Polymerase: Taq DNA polymerase derived from Thermus aquaticus (TaKaRa Taq, manufactured by Takara Shuzo Co., Ltd.) [reference compound] | 90 | 38 | 100 | 0.063 | 290 | 130 |  |  |  |  |  |  | difficult to amplify a DNA fragment of not less than 10 kbp |
